For one test, the target named is T1, human TRH receptor (Homo sapiens, UniProt P34981).
T1 sequence (P34981 1-398): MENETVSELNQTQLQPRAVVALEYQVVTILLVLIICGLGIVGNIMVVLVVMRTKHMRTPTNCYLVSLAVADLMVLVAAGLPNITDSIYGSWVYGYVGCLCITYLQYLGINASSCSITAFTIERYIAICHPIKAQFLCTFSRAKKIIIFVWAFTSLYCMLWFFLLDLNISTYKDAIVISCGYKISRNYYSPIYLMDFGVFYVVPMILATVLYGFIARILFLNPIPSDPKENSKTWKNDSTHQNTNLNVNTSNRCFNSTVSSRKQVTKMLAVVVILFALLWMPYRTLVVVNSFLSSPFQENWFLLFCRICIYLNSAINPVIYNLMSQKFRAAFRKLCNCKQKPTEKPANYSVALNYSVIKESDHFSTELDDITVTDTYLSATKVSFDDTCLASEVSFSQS
Nature of the test: Antagonism of [3H]TRH binding in CHO dhfr- cells transformed with human TRH receptor DNA (Examples 5 and 6). The conditions noted are these: for inhibition at 10 µM / inhibition at 100 µM / inhibition at 1000 µM: 1 h; for Antagonistic binding activity to the human TRH receptor, in words: benzodiazepine compounds, 10 μM to 1 mM; for Antagonistic Rate (%) at Each Concentration (-log M): 60 min. Also noted: translation frame (open reading frame) of the human TRH receptor was constructed on pUC118; expressed in transfected cells; host or cells: CHO dhfr- cells (plasmid pAKKO1.11 with the human TRH receptor open reading frame).

For test [1], the target named is T2, human TRH receptor protein (human).
T2 chain: T1 sequence (P34981 1-398)
In words: competition with 10 nM 3H-TRH, CHO cells expressing human TRH receptor; compound at 10^-4 M.

Test [2] addresses T2, human TRH receptor protein. Nature of the test: competition with 10 nM 3H-TRH, CHO cells expressing human TRH receptor; compound at 10^-5 M.
The target in test [3] is T2, human TRH receptor protein. Nature of the test: competition with 18.3 nM 3H-TRH, CHO cells expressing human TRH receptor; compound at 10^-10 M. Here is the method:
(§1) In Table 2, the degree of a reduction in the binding of [^3H] TRH in the case where the TRH analogous compound having respective concentrations was added to the total binding of [^3H] TRH in the case where no TRH analogous compound existed was indicated as percentage. The specific activity of [^3H] TRH used in the experiment was 83.04 Ci/mmol, and this was added to give a concentration of 10 nM in the reaction solution. For the compounds indicated by (*1) in the table, the specific activity of [^3H] TRH was 45 Ci/mmol, and this was added to give a concentration of 18.3 nM in the reaction solution.

Test [4] addresses T2, human TRH receptor protein. Nature of the test: competition with 18.3 nM 3H-TRH, CHO cells expressing human TRH receptor; compound at 10^-7 M. Here is the method:
as §1

Test [5] deals with T2, human TRH receptor protein. In words: competition with 18.3 nM 3H-TRH, CHO cells expressing human TRH receptor; compound at 10^-9 M. The procedure:
as §1

The target of test [6] is T2, human TRH receptor protein. In words: competition with 10 nM 3H-TRH, CHO cells expressing human TRH receptor; compound at 10^-9 M.
Test [7] has as its target T2, human TRH receptor protein. In words: competition with 10 nM 3H-TRH, CHO cells expressing human TRH receptor; compound at 10^-12 M. Here is the method: as §1
Test [8] has as its target T2, human TRH receptor protein. Nature of the test: competition with 18.3 nM 3H-TRH, CHO cells expressing human TRH receptor; compound at 10^-5 M. Here is the method: as §1
Test [9] has as its target T2, human TRH receptor protein. Nature of the test: competition with 18.3 nM 3H-TRH, CHO cells expressing human TRH receptor; compound at 10^-8 M. The procedure: as §1
The target in test [10] is T2, human TRH receptor protein. Nature of the test: competition with 10 nM 3H-TRH, CHO cells expressing human TRH receptor; compound at 10^-10 M. The procedure: as §1
Test [11] deals with T2, human TRH receptor protein. In words: competition with 10 nM 3H-TRH, CHO cells expressing human TRH receptor; compound at 10^-6 M. Here is the method:
as §1

In test [12] the target is T2, human TRH receptor protein. In words: competition with 10 nM 3H-TRH, CHO cells expressing human TRH receptor; compound at 10^-11 M. Here is the method:
as §1

For test [13], the target named is T2, human TRH receptor protein. Nature of the test: competition with 10 nM 3H-TRH, CHO cells expressing human TRH receptor; compound at 10^-8 M.
Test [14] concerns the target T2, human TRH receptor protein. In words: competition with 10 nM 3H-TRH, CHO cells expressing human TRH receptor; compound at 10^-7 M. Here is the method:
as §1

The target in test [15] is T2, human TRH receptor protein. In words: competition with 18.3 nM 3H-TRH, CHO cells expressing human TRH receptor; compound at 10^-6 M. Here is the method: as §1
The mark [16] stands for this setting: read-out: Antagonistic activity (TABLE 1; percentage to that of the control).
[17] abbreviates: -log M = 4, 10 nM [3H]TRH, read-out: Antagonistic Rate (%) at Each Concentration (-log M).
Setting [18] is: -log M = 5, 10 nM [3H]TRH, read-out: Antagonistic Rate (%) at Each Concentration (-log M).

Where two headings read alike, the source gives them in different places. Square brackets hold non-standard residues; d marks the D form. Ends that are not written are not given here. Peptide text beside a SMILES is read from it. Blc = γ-butyrolactone-γ-carbonyl group; pGlu = O=C1CC[C@@H](C(=O)O)N1; ΔPro = O=C(O)[C@@H]1C=CCN1; Nva = CCC[C@H](N)C(=O)O; His(3-Me) = 3-Me-His

Consider `CNC1=Nc2ccc(Cl)cc2C(c2ccccc2)=[N+]([O-])C1` [Chlordiazepoxide, chlordiazepoxide], for which, on human TRH receptor (setting [16]), the inhibition at 10 µM was -2.2%, the inhibition at 100 µM amounted to 7.1% and the inhibition at 1000 µM came to 46.8%. Also, the “Antagonistic binding activity to the human TRH receptor, in words” value (shortened to “Antagonistic binding activity”) at human TRH receptor was “antagonistic activity increased in order of midazolam, chlordiazepoxide and oxazepam”.
Consider `O=C1N[C@@H](Cc2c[nH]cn2)C(=O)N2CCC[C@@H]12` [Compound 2, Cyclo(His--Pro) His Pro-Diketopiperazine], for which, at human TRH receptor (setting [17]), the inhibition at 100 µM was -1.1%. For the same molecule, on human TRH receptor (setting [18]), the inhibition at 10 µM worked out at 0.6%.
For `NC(=O)[C@@H]1CCCN1C(=O)[C@H](Cc1ccccc1)NC(=O)[C@@H]1CCC(=O)N1` [Compound 14, pGlu Phe Pro NH2] ([pGlu]-Phe-Pro-NH2), in that order: 96.2% and 74.2%.
Turning to `CCC[C@H](NC(=O)[C@@H]1CCC(=O)N1)C(=O)N1CCC[C@H]1C(N)=O` [Compound 15, pGlu NVal Pro NH2] ([pGlu]-[Nva]-Pro-NH2), at human TRH receptor (setting [17]), the inhibition at 100 µM turned out to be 78.6%. In addition, the inhibition at 10 µM on human TRH receptor (setting [18]) came out at 33.4%.
For `CN1C(=O)CN=C(c2ccccc2F)c2cc([N+](=O)[O-])ccc21` [Flunitrazepam, flunitrazepam], at human TRH receptor (setting [16]), the inhibition at 10 µM is -0.5%, the inhibition at 100 µM was -4% and the inhibition at 1000 µM is -13.7%. Further, on human TRH receptor, the “Antagonistic binding activity” value was “no antagonistic binding was observed at all”.
As to `Cc1ncc2n1-c1ccc(Cl)cc1C(c1ccccc1F)=NC2` [Midazolam, midazolam], on human TRH receptor (setting [16]), the inhibition at 10 µM worked out at 2.6%, the inhibition at 100 µM worked out at 12% and the inhibition at 1000 µM was 69.7%. The “Antagonistic binding activity” value at human TRH receptor was “antagonistic activity increased in order of midazolam, chlordiazepoxide and oxazepam”.
Take “pGlu His Pro Gly Lys ([pGlu]HPGK) [Compound 3]”: the “Antagonistic Rate (%) at Each Concentration (-log M)” value is 31.9% with human TRH receptor (-log M = 5, 10 nM [3H]TRH) and -0.6% with human TRH receptor (-log M = 6, 10 nM [3H]TRH, 1 µM).
With [pGlu]-[Nva]-Pro-NH2 (SMILES CCC[C@H](NC(=O)[C@@H]1CCC(=O)N1)C(=O)N1CCC[C@H]1C(N)=O) [pGlu NVal Pro NH2], the “Antagonistic Rate (%)” value in test [1] was 78.6%; in test [2] it was 33.4%.
Consider [pGlu]-His-Pro-NH2 [TRH (pGlu His Pro NH2)], for which the “Antagonistic Rate (%)” value is -0.7% in test [3]; 83.9% in test [4]; 4.2% in test [5]; 7.2% in [6]; 0% in test [7]; 99.7% in [8]. The “Antagonistic Rate (%)” value in [9] turned out to be 39.8%; in test [10], 0.3%; in [11], 98.7%; in [12], 0.7%; in [2], 99.7%; in [13], 52%. Besides, the “Antagonistic Rate (%)” value turned out to be 90.7% in test [14] and 97.8% in [15].
On to HP (cyclic dipeptide (diketopiperazine) of His and Pro) [Cyclo(His--Pro) His Pro-Diketopiperazine], for which the “Antagonistic Rate (%)” value in test [1] was -1.1%; in test [2], 0.6%.
On to [pGlu]-Glu-Pro-NH2 (SMILES NC(=O)[C@@H]1CCCN1C(=O)[C@H](CCC(=O)O)NC(=O)[C@@H]1CCC(=O)N1) [pGlu Glu Pro NH2], for which the “Antagonistic Rate (%)” value in [2] was -2.9%.
Turning to Blc-His-Pro [Blc His Pro], the “Antagonistic Rate (%)” value is 0.7% in [1] and -0.1% in [2].
Regarding [pGlu]-Phe-Pro-NH2 [pGlu Phe Pro NH2], the results for the “Antagonistic Rate (%)” value in test [1] and in test [2] were 96.2% and 74.2%, respectively.
For [pGlu]-His-[ΔPro]-NH2 (SMILES NC(=O)[C@@H]1C=CCN1C(=O)[C@H](Cc1c[nH]cn1)NC(=O)[C@@H]1CCC(=O)N1) [pGlu His 3,4-dihydro-Pro NH2], the “Antagonistic Rate (%)” value in test [3] is 2.2%; in [4], 84.6%; in test [5], 7%; in test [8], 99.7%; in test [9] it was 39.1%; in test [15], 98.3%.
Take [pGlu]-His-Pro [pGLU His Pro]: the entries for the “Antagonistic Rate (%)” value in test [1] and in test [2] were 40.8% and 11.8%, respectively.
With Glu-His-Pro-NH2 [Glu His Pro NH2], the “Antagonistic Rate (%)” value in [3] turned out to be 2%; in test [4], 19.7%; in test [5], 1%; in test [8] it was 95.3%; in test [9] it was 1.8%; in test [15] it was 70.7%.
For the molecule [pGlu]-[His(3-Me)]-Pro-NH2 [pGlu 3-Me-His Pro NH2], the “Antagonistic Rate (%)” value is 20% in test [6]; -6.5% in test [7]; -4.4% in test [10]; -7.1% in [12]; 97.9% in test [2]; 85% in test [13].

The values are drawn from patent publication US5879896A, “Method of screening for inhibitors of human thyrotropin releasing hormone (TRH) receptor” (Takeda Chemical Industries, Ltd., priority 1993, dated 1999).
